± gives the standard deviation.
Assay: protein stability index of a GFP-peptide fusion (GPS, HEK-293T) (PSI 1-6); higher = more stable
[1] = treatment: DMSO, c terminus: a fixed tail appended
[2] = treatment: MLN4924 1 uM, 8 h, c terminus: a fixed tail appended
[3] = treatment: DMSO, c terminus: native
[4] = treatment: MLN4924 1 uM, 8 h, c terminus: native
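Further: 24-mer peptide tiles fused after GFP, lentivirally expressed, FACS-sorted into six equal bins by GFP/DsRed ratio, decoded by Illumina sequencing, PSI is the read-weighted mean bin number.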

Row | Sequence | protein stability index [1] | protein stability index [2] | protein stability index [3] | protein stability index [4]
1 | ILNSVEKYDPHTGHWTNVTPMATK [KLHL12] | 3.15 ± 0.29 | 3.43 ± 0.44 |  | 
2 | YENFLEDKALMIAMEYAPGGTLAE [NEK8] | 3.54 ± 0.13 | 3.98 ± 0.2 |  | 
3 | CDPSRIYKPQTRLKRKQPVRKRQ [DFFB] |  |  | 3.96 ± 0.36 | 4.15 ± 0.13
4 | TRSKSDPVLHPSEERAAPVLSCEA [FAM189A2] | 5.49 ± 0.25 | 5.61 ± 0.15 |  | 
5 | RRTPPGQQRPHPRSHSREPRAERK [ELOA2] | 5.332 ± 0.008 | 5.58 ± 0.17 |  | 
6 | YQDMIYAVGGRDDTTELSSAERYN [KLHL20] | 2.91 ± 0.66 | 3.52 ± 0.51 |  | 
7 | KKIEFGVVYSCVEGKMYTARKGKG [IMPA1] | 3.06 ± 0.075 | 3.24 ± 0.12 |  | 
8 | FNKPSRVPAPEAFRDPIWSTWALY [MYORG] | 2.23 ± 0.46 | 2.25 ± 0.47 |  | 
9 | GEPGAAAPAMYDDESAIDFSAYID [CEBPD] | 5.28 ± 0.21 | 5.08 ± 0.29 |  | 
10 | FSLLEELKEGMLMKIKQDRASRTY [FSD1] | 2.63 ± 0.42 | 2.66 ± 0.14 |  | 
11 | LEGEEENELTLNEKNFFPEYNYDW [CHGB] | 4.21 ± 0.37 | 4.46 ± 0.28 |  | 
12 | EQQTMDNLEKQLICPICLEMFTKP [TRIM55] | 3.77 ± 0.38 | 4.14 ± 0.38 |  | 
13 | VNGDGSRENGNNSSDKVRGIETLE [PHTF1] | 5.24 ± 0.32 | 5.22 ± 0.28 |  | 
14 | ARRRVCHTEDFQKEEGTVNGASWH [CPXM2] | 4.57 ± 0.16 | 4.71 ± 0.84 |  | 
15 | SWLDVQVSNTYVKQKTSAALSTMG [TPD52L3] | 2.79 ± 0.27 | 2.47 ± 0.22 |  | 
16 | CMFCLYSFMPLVIKVTSATSVNLG [SLC35F2] | 2.91 ± 0.72 | 2.73 ± 0.41 |  | 
17 | MLLQHQICKEVQAEQEPTRKLFEV [SPAG8] | 2.79 ± 0.26 | 2.78 ± 0.23 |  | 
18 | IKPNEILPPEKGREVAKELGIPYY [RHOBTB2] | 3.73 ± 0.14 | 3.79 ± 0.12 |  | 
19 | ATKFKQLYRSRMNSLEMTPAVRQR [HMOX1] | 3.32 ± 0.21 | 3.56 ± 0.27 |  | 
20 | AWIWHDCHRHYHSMEVFTHYDLLN [LOXL2] | 2.41 ± 0.14 | 3 ± 1.2 |  | 
21 | ICEDSFDGRSLSKLNLCEDGPCHK [SCARA5] | 4.55 ± 0.15 | 4.57 ± 0.16 |  | 
22 | SVVDHPMPEERASKYENYFSASER [HESX1] | 4.73 ± 0.37 | 4.76 ± 0.17 |  | 
23 | SPLQTIGEEQTQNPYTELLVLKAH [WDR41] | 3.78 ± 0.078 | 3.75 ± 0.3 |  | 

Row | Sequence | protein stability index [1] | protein stability index [2] | protein stability index [3] | protein stability index [4]
24 | WAEIAKMLPGRTDNAVKNHWNSTI [MYBL2] | 2.18 ± 0.28 | 2.16 ± 0.18 |  | 
25 | FESFPAGSTLIFYKYCDHENAAFK [TOR1AIP2] | 2.17 ± 0.14 | 2.17 ± 0.23 |  | 
26 | QAYKWSNKLQYHAGLASGLLNQQS [MED27] | 2.46 ± 0.28 | 2.42 ± 0.096 |  | 
27 | YIMAFDIKSEDMLKILKPSIPLER [FBXO33] | 2.34 ± 0.44 | 2.67 ± 0.4 |  | 
28 | QLELRAGAERLDALLADEERCLSC [TRADD] | 3.98 ± 0.25 | 4.24 ± 0.18 |  | 
29 | QQPSLNTMIQQQNMQQPMNVMTQS [CLINT1] | 4.41 ± 0.21 | 4.52 ± 0.087 |  | 
30 | SRRSYDDQLRSGSPPKSPRTTVHD [DNAJC4] | 4.89 ± 0.31 | 4.98 ± 0.23 |  | 
31 | SYQEEAAMELKVEDPFYWVSPGVL [MOG] | 3.25 ± 0.5 | 3.28 ± 0.13 |  | 
32 | KETEERTDGERVAEVAPEERENVA [SDE2] | 5.64 ± 0.17 | 5.33 ± 0.42 |  | 
33 | FTLGDCDVIQALDLSVPLMDVGET [FKBP8] | 3.53 ± 0.093 | 3.54 ± 0.24 |  | 
34 | LIPQPLDSEEDEKMEEDIKEEEEK [PCMTD1] | 5.66 ± 0.23 | 5.67 ± 0.22 |  | 
35 | MDALQLANSAFAVDLFKQLCEKEP [SERPINB5] | 3.5 ± 0.36 | 3.53 ± 0.16 |  | 
36 | NAAYFVGKWMKKFPESETKECPFR [SERPINB5] | 2.77 ± 0.29 | 2.98 ± 0.47 |  | 
37 | QCRDLVDEAKKFHLRPELRSQMQG [KLHL12] | 3.38 ± 0.18 | 3.53 ± 0.13 |  | 
38 | DYLSGVLILASELSRLSVNSVTAG [TSN] | 3.54 ± 0.61 | 2.68 ± 0.4 |  | 
39 | VQDKTPLYSQLLQAYKWSNKLQYH [MED27] | 2.18 ± 0.27 | 2.19 ± 0.25 |  | 
40 | GLQHAPEPDAADGPYDPNSVRISF [SMAD6] | 4.24 ± 0.38 | 4.49 ± 0.27 |  | 
41 | PFGENAEFPADISSITEAVPSESE [NFE2L1] | 5.5 ± 0.28 | 5.25 ± 0.27 |  | 
42 | IQSKLGIVSLLLGTIHALIFAWNK [STEAP1] | 2.35 ± 0.31 | 2.22 ± 0.31 |  | 
43 | SHSCYHDTRSGFWYVCRTQGVEGD [TRIM35] | 2.52 ± 0.27 | 2.36 ± 0.29 |  | 
44 | TLALQGTQGQEKMMMMGPKEEEQS [ZNF232] | 5.29 ± 0.31 | 5.43 ± 0.14 |  | 
45 | DPNTRPVGEKNCTGPPCDRQWTVS [ADAMTSL2] | 4.89 ± 0.15 | 4.86 ± 0.32 |  | 
46 | QLLEQKQAYWAQAEDTAAPAEESK [CBY2] | 5.01 ± 0.25 | 4.96 ± 0.23 |  | 

Row | Sequence | protein stability index [1] | protein stability index [2] | protein stability index [3] | protein stability index [4]
47 | AVPVSTSKPSSDLLDLQPDFSSGG [SNAP91] | 4.76 ± 0.17 | 4.84 ± 0.14 |  | 
48 | HHSFPYDYSASEYRWHINFTTFFI [SCD] | 3.06 ± 0.5 | 2.86 ± 0.41 |  | 
49 | LLDELMGRDRNLAPDEKRSNVRWD [LUC7L3] | 3.59 ± 0.21 | 3.64 ± 0.19 |  | 
50 | DFMELGRSIPDTQLEQVIESQKAN [ACSBG2] | 5.16 ± 0.26 | 4.99 ± 0.26 |  | 
51 | YISHRELGDCMRTLGYMPTEMELL [CABP4] | 2.27 ± 0.34 | 2.48 ± 0.43 |  | 
52 | GAASLPSELIVHIFSFLPAPDRLR [FBXO33] | 2.6 ± 0.74 | 2.74 ± 0.39 |  | 
53 | SEEELAAATTSKEQEPIGTDLDAV [MYBL2] | 5.71 ± 0.19 | 5.58 ± 0.25 |  | 
54 | EGAIVMARGRHVGSSETNLLQHLL [PYCR3] | 3.25 ± 0.78 | 3.18 ± 0.08 |  | 
55 | HSIIISLVEAGAHTDMTNKQNKTP [FEM1B] | 2.46 ± 0.49 | 2.63 ± 0.32 |  | 
56 | ASRVKLQHLPAQEQWDRLLVLYPT [PLEKHN1] | 2.21 ± 0.14 | 2.41 ± 0.35 |  | 
57 | KGKKLYPVVSAVWGHCEIRMRYLN [SPSB1] | 2.23 ± 0.35 | 2.26 ± 0.23 |  | 
58 | LVQLRGRLTSQDWERVHLIVAGGY [ALG2] | 2.03 ± 0.62 | 2.44 ± 0.58 |  | 
59 | LTICYPEYAGSNTYEEAAAYIQCQ [GNAI1] | 2.46 ± 0.25 | 2.43 ± 0.46 |  | 
60 | PQALATRALPCPAHVVFRYQGVRM [FCHSD1] | 2.69 ± 0.2 | 2.69 ± 0.22 |  | 
61 | IIRNVGKYREAARLEINVLKKIKE [CLK3] | 2.68 ± 0.51 | 2.33 ± 0.27 |  | 
62 | NLITTVTPEKKAEEERDEEEDKRR [EPB41L3] | 5.61 ± 0.35 | 5.56 ± 0.2 |  | 
63 | SFPPSLSSSSSSSPTSGSPRGSHS [LURAP1L] | 4.96 ± 0.2 | 5.01 ± 0.16 |  | 
64 | SPEIMASVLNGKFANLIKEFVIID [CDC25A] | 2.47 ± 0.29 | 2.23 ± 0.19 |  | 
65 | LTADSRKSHLIFPQPNYADTLISQ [PCDHGA10] | 3.17 ± 0.17 | 3.11 ± 0.27 |  | 
66 | LVSQSNDLSSLRAKYPHDVVNHLS [SPACA9] | 3.09 ± 0.19 | 3.19 ± 0.21 |  | 
67 | GIEEVTYENCLQALADVEVKYIVE [NLN] | 3.29 ± 0.37 | 3.34 ± 0.34 |  | 
68 | PSPTSPPPPELMDVSLVGGPADCS [DYRK1B] | 5.09 ± 0.1 | 5.14 ± 0.22 |  | 
69 | RYHVIRKLGWGHFSTVWLCWDMQG [SRPK2] | 2.83 ± 0.74 | 2.69 ± 0.27 |  | 

Row | Sequence | protein stability index [1] | protein stability index [2] | protein stability index [3] | protein stability index [4]
70 | DILEVKRLLDHQDNILSLINVNDL [WDR41] | 2.24 ± 0.4 | 2.22 ± 0.25 |  | 
71 | LAVLDWNQRAMDLYKALGAQDLTE [SAT2] | 2.41 ± 0.24 | 2.42 ± 0.19 |  | 
72 | EVHERNDGIDPFPLLMNRQRVPKV [EFHC1] | 3.67 ± 0.31 | 3.64 ± 0.3 |  | 
73 | MKRSKELITKNHSQEETSILRCWK [RNF180] | 3.11 ± 0.24 | 3.19 ± 0.058 |  | 
74 | QGIYEEYEDIRRENPVGTFHCSMS [PTPN9] | 3.84 ± 0.28 | 3.98 ± 0.26 |  | 
75 | CSRFFIDFPDILEQQRKLETYLQN [TENT5C] | 2.17 ± 0.22 | 2.24 ± 0.12 |  | 
76 | QPSGMKEGVKRYEQEHAAIQDKLF [CHCHD6] | 4.55 ± 0.12 | 4.14 ± 0.21 |  | 
77 | NNFREYNLHRVAAHELGHSLGLSH [MMP1] | 2.85 ± 0.22 | 3.01 ± 0.13 |  | 
78 | QETAEFFLSLDIPIGELYGLSESS [ACSBG2] | 2.61 ± 0.37 | 2.47 ± 0.41 |  | 
79 | AIHSSDEGEDQAGDEDEDDEWDD [WAS] |  |  | 5.06 ± 0.3 | 5.25 ± 0.29
80 | AQRQACMYASSAPPSEPVPSLEDI [TBX5] | 4.92 ± 0.14 | 4.96 ± 0.077 |  | 
81 | VPYHIARIPYTKSQTEAHYSCQSK [P2RY14] | 3.47 ± 0.17 | 3.53 ± 0.36 |  | 
82 | MTEAALALSEQKAQDLGELLATAE [LRRC45] | 5.16 ± 0.13 | 5.08 ± 0.13 |  | 
83 | QAIVTEDKTDISSGRARQQDEEML [MLH1] | 5.23 ± 0.22 | 5.38 ± 0.14 |  | 
84 | EHKSLESLADGGSASPIKDQPVMA [FANCE] | 5.43 ± 0.27 | 5.32 ± 0.2 |  | 
85 | AIQDQLPRLQQLLKTLEEGLEGLE [FANCE] | 3.61 ± 0.32 | 3.68 ± 0.23 |  | 
86 | VIEEAKTAFLLNIQLFEELQELLT [HMOX1] | 2.08 ± 0.32 | 2.38 ± 0.2 |  | 
87 | MKMEEAVGKVEELIESEAPPKASE [C18orf25] | 5.59 ± 0.15 | 5.48 ± 0.57 |  | 
88 | ADDPDDGPVPGTPGLPGSTGNPKS [SPNS1] | 5.47 ± 0.39 | 5.49 ± 0.35 |  | 
89 | FNSTYNARVKAFNKTGVSPYSKTL [TRIM9] | 2.55 ± 0.41 | 2.85 ± 0.38 |  | 
